From paper PMC4312765 (Protein & Cell, 2014)

Target: the molecule itself
Assay: static light scattering + AUC; Dpy30FL and Dpy30C in solution

B1: Dpy30 C-terminal domain (domain or fragment)
chain: not shown
- stoichiometry N: 2
